From US20240270846A1 (published 2024) come the findings set out here.

The target in this assay is T1, CD3 epsilon homodimer protein (UniProt P07766 23-126).
T1 construct: also called CD3 (CD3 epsilon)
Kind of assay: SPR Biacore T200, CD3 epsilon homodimer on chip, antibody as analyte.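 Further: homodimer amine-coupled to a CM4 sensor chip, run at 25 °C in HBS-EP+ buffer, with kinetic parameters derived in Biacore T200 Evaluation Software.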

T1 sequence (P07766 23-126): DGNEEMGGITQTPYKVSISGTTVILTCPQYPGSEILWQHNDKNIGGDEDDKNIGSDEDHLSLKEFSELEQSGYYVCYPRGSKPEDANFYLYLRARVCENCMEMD

B1: CE115HA000 H chain altered form N54K (antibody, human IgG1, kappa, L234A L235A, N297A, name in Kabat numbering)
heavy: QVQLVESGGGVVQPGRSLRLSCAASGFTFSNAWMHWVRQAPGKGLEWVAQIKAKSNKYATYYAESVKGRFTISRDDSKNSLYLQMNSLKTEDTAVYYCRYVHYGAYYGVDAWGQGTTVTVSSASTKGPSVFPLAPSSKSTSGGTAALGCLVKDYFPEPVTVSWNSGALTSGVHTFPAVLQSSGLYSLSSVVTVPSSSLGTQTYICNVNHKPSNTKVDKKVEPKSCDKTHTCPPCPAPEAAGGPSVFLFPPKPKDTLMISRTPEVTCVVVDVSHEDPEVKFNWYVDGVEVHNAKTKPREEQYASTYRVVSVLTVLHQDWLNGKEYKCKVSNKALPAPIEKTISKAKGQPREPQVYTLPPSRCELTKNQVSLSCAVKGFYPSDIAVEWESNGQPENNYKTTPPVLDSDGSFFLVSKLTVDKSRWQQGNVFSCSVMHEALHNHYTQKSLSLSPDYKDDDDK
chain: EPKSSDKTHTCPPCPAPELLGGPSVFLFPPKPKDTLMISRTPEVTCVVVDVSHEDPEVKFNWYVDGVEVHNAKTKPREEQYNSTYRVVSVLTVLHQDWLNGKEYKCKVSNKALPAPIEKTISKAKGQPREPQVCTLPPSRDELTKNQVSLWCLVKGFYPSDIAVEWESNGQPENNYKTTPPVLDSDGSFFLYSKLTVDKSRWQQGNVFSCSVMHEALHNRYTQKSLSLSP
light: DIVMTQSPLSLPVTPGEPASISCRSSQSLVHSNRNTYLHWYQQKPGQAPRLLIYKVSNRFSGVPDRFSGSGSGTDFTLKISRVEAEDVGVYYCGQGTQVPYTFGQGTKLEIKRTVAAPSVFIFPPSDEQLKSGTASVVCLLNNFYPREAKVQWKVDNALQSGNSQESVTEQDSKDSTYSLSSTLTLSKADYEKHKVYACEVTHQGLSSPVTKSFNRGEC
notes: one-arm antibody
For the molecule B1, the “KD ratio (KD of CE115HA000 / KD of altered form)” value was 0.82.

B2: CE115HA000 H chain altered form N54Q (antibody, human IgG1, kappa, L234A L235A, N297A, name in Kabat numbering)
heavy: QVQLVESGGGVVQPGRSLRLSCAASGFTFSNAWMHWVRQAPGKGLEWVAQIKAKSNQYATYYAESVKGRFTISRDDSKNSLYLQMNSLKTEDTAVYYCRYVHYGAYYGVDAWGQGTTVTVSSASTKGPSVFPLAPSSKSTSGGTAALGCLVKDYFPEPVTVSWNSGALTSGVHTFPAVLQSSGLYSLSSVVTVPSSSLGTQTYICNVNHKPSNTKVDKKVEPKSCDKTHTCPPCPAPEAAGGPSVFLFPPKPKDTLMISRTPEVTCVVVDVSHEDPEVKFNWYVDGVEVHNAKTKPREEQYASTYRVVSVLTVLHQDWLNGKEYKCKVSNKALPAPIEKTISKAKGQPREPQVYTLPPSRCELTKNQVSLSCAVKGFYPSDIAVEWESNGQPENNYKTTPPVLDSDGSFFLVSKLTVDKSRWQQGNVFSCSVMHEALHNHYTQKSLSLSPDYKDDDDK
chain: EPKSSDKTHTCPPCPAPELLGGPSVFLFPPKPKDTLMISRTPEVTCVVVDVSHEDPEVKFNWYVDGVEVHNAKTKPREEQYNSTYRVVSVLTVLHQDWLNGKEYKCKVSNKALPAPIEKTISKAKGQPREPQVCTLPPSRDELTKNQVSLWCLVKGFYPSDIAVEWESNGQPENNYKTTPPVLDSDGSFFLYSKLTVDKSRWQQGNVFSCSVMHEALHNRYTQKSLSLSP
light: DIVMTQSPLSLPVTPGEPASISCRSSQSLVHSNRNTYLHWYQQKPGQAPRLLIYKVSNRFSGVPDRFSGSGSGTDFTLKISRVEAEDVGVYYCGQGTQVPYTFGQGTKLEIKRTVAAPSVFIFPPSDEQLKSGTASVVCLLNNFYPREAKVQWKVDNALQSGNSQESVTEQDSKDSTYSLSSTLTLSKADYEKHKVYACEVTHQGLSSPVTKSFNRGEC
notes: one-arm antibody
For the molecule B2, the “KD ratio (KD of CE115HA000 / KD of altered form)” value amounted to 0.8.

B3: CE115HA000 H chain altered form N54L (antibody, human IgG1, kappa, L234A L235A, N297A, name in Kabat numbering)
heavy: QVQLVESGGGVVQPGRSLRLSCAASGFTFSNAWMHWVRQAPGKGLEWVAQIKAKSNLYATYYAESVKGRFTISRDDSKNSLYLQMNSLKTEDTAVYYCRYVHYGAYYGVDAWGQGTTVTVSSASTKGPSVFPLAPSSKSTSGGTAALGCLVKDYFPEPVTVSWNSGALTSGVHTFPAVLQSSGLYSLSSVVTVPSSSLGTQTYICNVNHKPSNTKVDKKVEPKSCDKTHTCPPCPAPEAAGGPSVFLFPPKPKDTLMISRTPEVTCVVVDVSHEDPEVKFNWYVDGVEVHNAKTKPREEQYASTYRVVSVLTVLHQDWLNGKEYKCKVSNKALPAPIEKTISKAKGQPREPQVYTLPPSRCELTKNQVSLSCAVKGFYPSDIAVEWESNGQPENNYKTTPPVLDSDGSFFLVSKLTVDKSRWQQGNVFSCSVMHEALHNHYTQKSLSLSPDYKDDDDK
chain: EPKSSDKTHTCPPCPAPELLGGPSVFLFPPKPKDTLMISRTPEVTCVVVDVSHEDPEVKFNWYVDGVEVHNAKTKPREEQYNSTYRVVSVLTVLHQDWLNGKEYKCKVSNKALPAPIEKTISKAKGQPREPQVCTLPPSRDELTKNQVSLWCLVKGFYPSDIAVEWESNGQPENNYKTTPPVLDSDGSFFLYSKLTVDKSRWQQGNVFSCSVMHEALHNRYTQKSLSLSP
light: DIVMTQSPLSLPVTPGEPASISCRSSQSLVHSNRNTYLHWYQQKPGQAPRLLIYKVSNRFSGVPDRFSGSGSGTDFTLKISRVEAEDVGVYYCGQGTQVPYTFGQGTKLEIKRTVAAPSVFIFPPSDEQLKSGTASVVCLLNNFYPREAKVQWKVDNALQSGNSQESVTEQDSKDSTYSLSSTLTLSKADYEKHKVYACEVTHQGLSSPVTKSFNRGEC
notes: one-arm antibody
On to B3, for which the “KD ratio (KD of CE115HA000 / KD of altered form)” value stood at 0.91.

B4: CE115HA000 H chain altered form N54S (antibody, human IgG1, kappa, L234A L235A, N297A, name in Kabat numbering)
heavy: QVQLVESGGGVVQPGRSLRLSCAASGFTFSNAWMHWVRQAPGKGLEWVAQIKAKSNSYATYYAESVKGRFTISRDDSKNSLYLQMNSLKTEDTAVYYCRYVHYGAYYGVDAWGQGTTVTVSSASTKGPSVFPLAPSSKSTSGGTAALGCLVKDYFPEPVTVSWNSGALTSGVHTFPAVLQSSGLYSLSSVVTVPSSSLGTQTYICNVNHKPSNTKVDKKVEPKSCDKTHTCPPCPAPEAAGGPSVFLFPPKPKDTLMISRTPEVTCVVVDVSHEDPEVKFNWYVDGVEVHNAKTKPREEQYASTYRVVSVLTVLHQDWLNGKEYKCKVSNKALPAPIEKTISKAKGQPREPQVYTLPPSRCELTKNQVSLSCAVKGFYPSDIAVEWESNGQPENNYKTTPPVLDSDGSFFLVSKLTVDKSRWQQGNVFSCSVMHEALHNHYTQKSLSLSPDYKDDDDK
chain: EPKSSDKTHTCPPCPAPELLGGPSVFLFPPKPKDTLMISRTPEVTCVVVDVSHEDPEVKFNWYVDGVEVHNAKTKPREEQYNSTYRVVSVLTVLHQDWLNGKEYKCKVSNKALPAPIEKTISKAKGQPREPQVCTLPPSRDELTKNQVSLWCLVKGFYPSDIAVEWESNGQPENNYKTTPPVLDSDGSFFLYSKLTVDKSRWQQGNVFSCSVMHEALHNRYTQKSLSLSP
light: DIVMTQSPLSLPVTPGEPASISCRSSQSLVHSNRNTYLHWYQQKPGQAPRLLIYKVSNRFSGVPDRFSGSGSGTDFTLKISRVEAEDVGVYYCGQGTQVPYTFGQGTKLEIKRTVAAPSVFIFPPSDEQLKSGTASVVCLLNNFYPREAKVQWKVDNALQSGNSQESVTEQDSKDSTYSLSSTLTLSKADYEKHKVYACEVTHQGLSSPVTKSFNRGEC
notes: one-arm antibody
For B4, the “KD ratio (KD of CE115HA000 / KD of altered form)” value was 0.57.
